Columns and labels:
[1] = tested on: male C57BI6 mice; experiment: Chronic liver injury (carbon tetrachloride) plus 2/3 partial hepatectomy in mice; type: in vivo, mouse; conditions: for mouse body weight: p<0.001 at day 4
Description: (§1) Forty-eight male C57BI6 mice aged 10-12 weeks underwent either 2/3 partial hepatectomy, paracetamol intoxication or chronic liver injury plus 2/3 partial hepatectomy. 2/3 partial hepatectomy was performed by ligating the left lobe and left and right median lobes. Paracetamol intoxication was performed by intraperitoneal administration of 350 mg/kg paracetamol dissolved in phosphate buffered saline (PBS). Chronic liver injury plus 2/3 partial hepatectomy was performed by eight weeks intraperitoneal carbon tetrachloride administration 1 mcl/g twice weekly dissolved in olive oil followed by ⅔ partial hepatectomy as described above. […] Control mice (n=8 per injury model) received subcutaneous PBS of appropriate volume. All mice were culled on day 4 following injury (partial hepatectomy or paracetamol intoxication).
(§2) Following a midline laparotomy the liver was excised and weighed. Liver weight to body weight ratio was calculated and expressed as a percentage. Livers were fixed in 4% formalin overnight then transferred to 70% ethanol. Livers were then embedded in paraffin blocks and 4 μm sections cut. Immunohistochemistry for Ki67 (a marker of cellular proliferation expressed throughout the cell cycle) was performed following heat mediated antigen retrieval in Tris/EDTA solution at pH9. Hepatocyte proliferation was quantified by counting ki67 positive hepatocytes in 20 high powered fields (400×) per animal and the mean calculated.
The effects of Fc-CSF1 on liver regeneration in murine models of acute liver injury (partial hepatectomy; paracetamol intoxication) and acute-on-chronic liver injury (chronic liver injury plus partial hepatectomy) were studieD. […] Control mice (n=8 per injury model) received subcutaneous PBS of appropriate volume.
CSF1-Fc or control was administered to mice immediately following 2/3 partial hepatectomy on a background of 8 weeks carbon tetrachloride induced chronic liver injury (1 mcl/g carbon tetrachloride/mouse 2×/week).

[2] = tested on: male C57BI6 mice; experiment: Paracetamol intoxication in mice; type: in vivo, mouse; conditions: administered 12 hours following paracetamol intoxication; Day 4
Description: as §1, §2
Hepatic CSF1 gene expression was assessed in mice following paracetamol intoxication (350 mg/kg paracetamol IP following overnight fast) at time points up to 4 days, showing peak CSF1 gene expression at day 2 (FIG. 14A).

[3] = chronic liver injury with 2/3 partial hepatectomy, vs control

B1: Fc-CSF-1: active fragment of porcine CSF-1 (SEQ ID NO:1) linked to the hinge-CH3 region of porcine IgG1a (SEQ ID NO:2) (protein, listed as Sus scrofa)
chain: SENCSHMIGDGHLKVLQQLIDSQMETSCQIAFEFVDQEQLTDPVCYLKKAFLQVQDILDETMRFRDNTPNANVIVQLQELSLRLNSCFTKDYEEQDKACVRTFYETPLQLLEKIKNVFNETKNLLKKDWNIFSKNCNNSFAKCSSQHERQPEGRGTKTKPPCPICPGCEVAGPSVFIFPPKPKDTLMISQTPEVTCVVVDVSKEHAEVQFSWYVDGVEVHTAETRPKEEQFNSTYRVVSVLPIQHQDWLKGKEFKCKVNNVDLPAPITRTISKAIGQSREPQVYTLPPPAEELSRSKVTVTCLVIGFYPPDIHVEWKSNGQPEPEGNYRTTPPQQDVDGTFFLYSKLAVDKARWDHGETFECAVMHEALHNHYTQKSISKTQGK
- fibrosis assessed by Sirius red quantification [1, 3]: trend to reduction
- liver weight to body weight ratio [1, 3]: increased significantly
- number of proliferating hepatocytes [1, 3]: increased significantly
- mouse body weight [1, 3]: significant increase in mouse weight
- mouse body weight ([1]; chronic liver injury with 2/3 partial hepatectomy, vs control, listed as CSF1-Fc): significant increase in body weight
- survival ([1]; chronic liver injury with 2/3 partial hepatectomy, vs control, p=0.08): trend to improved survival
- serum ALT ([1]; day 4 post hepatectomy): significant reduction
- serum bilirubin ([1]; day 4 post hepatectomy): significant reduction
- hepatocyte proliferation [2]: increasing
- liver weight to body weight ratio [2]: significantly increasing

From patent publication US20180112193A1, “CSF1 THERAPEUTICS” (University Court Of The University Of Edinburgh, priority 2013, published 2018)
